Experimental data reported in patent US20230203146A1.

Columns and labels:
[1] = biological target: FLAG-tagged human Ang2 (human) (UniProt O15123); assay: competition ELISA: blocking of FLAG-hAng2 binding to coated hTie2-Fc
[2] = biological target: FLAG-tagged human Ang2 (human) (UniProt O15123); assay: as above; remark: listed apart in the source
[3] = biological target: FLAG-tagged human Ang2 (human) (UniProt O15123); assay: as above; remark: listed apart in the source
[4] = biological target: FLAG-tagged mouse Ang2 (mouse) (UniProt O35608); assay: competition ELISA: blocking of FLAG-mAng2 binding to coated mTie2-Fc
Chain of FLAG-tagged mouse Ang2 (mouse) (O35608 19-496 limits assumed): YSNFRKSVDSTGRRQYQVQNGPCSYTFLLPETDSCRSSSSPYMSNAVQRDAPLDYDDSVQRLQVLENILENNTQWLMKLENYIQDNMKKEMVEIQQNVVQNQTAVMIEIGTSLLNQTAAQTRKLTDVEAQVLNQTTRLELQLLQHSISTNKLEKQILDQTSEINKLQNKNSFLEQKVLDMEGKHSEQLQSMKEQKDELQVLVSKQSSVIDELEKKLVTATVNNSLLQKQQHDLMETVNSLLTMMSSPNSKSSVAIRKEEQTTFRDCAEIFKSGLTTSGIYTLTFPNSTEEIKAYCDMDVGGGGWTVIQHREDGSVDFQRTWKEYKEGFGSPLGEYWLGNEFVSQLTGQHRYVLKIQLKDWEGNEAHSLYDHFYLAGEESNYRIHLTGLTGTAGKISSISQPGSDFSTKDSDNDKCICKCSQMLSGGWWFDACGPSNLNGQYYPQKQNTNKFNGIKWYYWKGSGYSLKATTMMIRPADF

[5] = biological target: FLAG-tagged human Ang2 (human) (UniProt O15123); assay: competition ELISA: blocking of FLAG-hAng2 binding to coated hTie2-Fc; remark: listed apart in the source
[6] = biological target: FLAG-tagged cynomolgus Ang2 (cynomolgus); assay: competition ELISA: blocking of FLAG-cAng2 binding to coated cTie2-Fc
Chain of FLAG-tagged cynomolgus Ang2 (cynomolgus) (O15123 other isoform, or with tags, fused parts or gaps limits assumed): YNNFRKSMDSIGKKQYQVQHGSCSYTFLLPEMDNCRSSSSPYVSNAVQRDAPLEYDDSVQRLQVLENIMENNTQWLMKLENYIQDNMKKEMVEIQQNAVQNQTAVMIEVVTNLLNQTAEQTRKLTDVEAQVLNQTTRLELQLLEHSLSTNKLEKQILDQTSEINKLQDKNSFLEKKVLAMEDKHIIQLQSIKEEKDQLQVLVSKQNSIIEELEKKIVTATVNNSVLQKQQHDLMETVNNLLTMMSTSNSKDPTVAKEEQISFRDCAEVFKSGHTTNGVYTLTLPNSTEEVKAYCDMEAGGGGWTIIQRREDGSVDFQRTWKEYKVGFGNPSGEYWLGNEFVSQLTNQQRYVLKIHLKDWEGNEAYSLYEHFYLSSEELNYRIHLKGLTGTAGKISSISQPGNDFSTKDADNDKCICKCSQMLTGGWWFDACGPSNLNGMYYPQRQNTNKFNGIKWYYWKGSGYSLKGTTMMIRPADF

[7] = biological target: FLAG-tagged mouse Ang2 (mouse) (UniProt O35608); assay: competition ELISA: FLAG-mAng2 binding to coated mTie2-Fc, residual mAng2 detected with anti-FLAG-HRP
[8] = biological target: FLAG-tagged mouse Ang2 (mouse) (UniProt O35608); assay: as above; remark: listed apart in the source
[9] = biological target: FLAG-tagged cynomolgus Ang2 (cynomolgus); assay: competition ELISA: FLAG-cAng2 binding to coated cTie2-Fc, residual cAng2 detected with anti-FLAG-HRP
[10] = biological target: FLAG-tagged human Ang2 (human) (UniProt O15123); assay: competition ELISA: FLAG-hAng2 binding to coated hTie2-Fc, residual hAng2 detected with anti-FLAG-HRP
[11] = biological target: FLAG-tagged human Ang2 (human) (UniProt O15123); assay: as above; remark: listed apart in the source
[12] = biological target: FLAG-tagged human Ang2 (human) (UniProt O15123); assay: as above; remark: listed apart in the source
[13] = biological target: FLAG-tagged human Ang2 (human) (UniProt O15123); assay: as above; remark: listed apart in the source
[14] = biological target: FLAG-tagged mouse Ang2 (mouse) (UniProt O35608); assay: competition ELISA: FLAG-mAng2 binding to coated mTie2-Fc, residual mAng2 detected with anti-FLAG-HRP; remark: listed apart in the source

Chain of FLAG-tagged human Ang2 (human) (O15123 19-496): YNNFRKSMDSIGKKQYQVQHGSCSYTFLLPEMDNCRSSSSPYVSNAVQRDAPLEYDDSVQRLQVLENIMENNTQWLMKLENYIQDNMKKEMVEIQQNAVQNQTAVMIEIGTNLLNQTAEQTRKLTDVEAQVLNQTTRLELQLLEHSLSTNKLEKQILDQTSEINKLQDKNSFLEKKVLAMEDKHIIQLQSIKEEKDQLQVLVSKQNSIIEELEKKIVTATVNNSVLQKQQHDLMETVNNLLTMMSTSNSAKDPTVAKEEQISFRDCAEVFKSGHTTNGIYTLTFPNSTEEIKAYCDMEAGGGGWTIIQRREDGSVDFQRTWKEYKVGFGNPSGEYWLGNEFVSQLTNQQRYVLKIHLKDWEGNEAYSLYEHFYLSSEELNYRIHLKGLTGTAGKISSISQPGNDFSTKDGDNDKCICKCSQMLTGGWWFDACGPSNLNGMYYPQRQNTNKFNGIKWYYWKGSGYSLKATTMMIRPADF

An IC50 (read off the curve) [1] of 4 pM, an IC50 (read off the curve) [2] of 5 pM and an IC50 (read off the curve) [3] of 3 pM were found for AMG386 (Fc fusion) in this work. For the same substance, the IC50 (read off the curve) [4] was 6 pM, the IC50 (read off the curve) [5] was 0.5 pM and the IC50 (read off the curve) [6] was 1 pM. The IC50 (read off the curve) [7] was 7 pM, the IC50 (read off the curve) [8] was 3 pM and the IC50 (read off the curve) [9] was 10 pM. For the same substance, the IC50 (read off the curve) [10] was 2 pM, the IC50 (read off the curve) [11] was 3 pM and the IC50 (read off the curve) [12] was 6 pM. The IC50 (read off the curve) [13] was 5 pM and the IC50 (read off the curve) [14] was 4 pM.
